Test results from US12648942B2, “Method for treating acute ischemic stroke” (Lumosa Therapeutics Co., LTD, priority 2021, dated 2026).

What was measured:
[1] = system: embolic occlusion of the middle cerebral artery in male Sprague-Dawley rats; assay: Embolic stroke model in SD rat (Examples 1, 4-6); assay type: in vivo, Sprague-Dawley rat; settings: for Mean neurological deficit scores (NDS): 24 hours after drug administration
Method: A 10% chloral hydrate solution (400 mg/kg) was injected intraperitoneally into SD male rats (240-320 g) for anesthesia. A vertical incision of about 2 cm in length was made on the right side near the center of the neck, and the right common carotid artery (CCA), external carotid artery (ECA) and internal carotid artery (ICA) were separated along the margin of the inner side of sternocleidomastoid muscles. The incision at the internal carotid artery and the proximal end of the common carotid artery were clipped respectively with noninvasive arterial clips. A small incision was made on the external carotid artery, and the distal end of the external carotid artery was ligated. The arterial clip at the proximal end of the common carotid artery was released, and 10 μl blood was drawn. After blood was drawn, the proximal end of the common carotid artery was again clipped with a noninvasive arterial clip. The 10 μl blood drawn was placed in a 1 mL EP vial and kept at RT for 30 min to allow the coagulation of blood and then transferred into a −20° C. refrigerator for 1 hour to allow the formation of solid coagulation. 1 hour later, the blood clots were taken out, 1 mL normal saline was added therein, and then the blood clots were broken into relatively uniform microthrombus by a steel spatula. The microthrombus suspension was then transferred into a 1 mL injector for use. When the clip on the internal carotid artery of the rat was released, the 1 mL thrombus suspension in the injector was slowly injected from the external carotid artery of the rat to its proximal end, and then was injected into the brain of the rat through the internal carotid artery. Subsequently, the proximal end of the external carotid artery was ligated, the arterial clips on the internal carotid artery and the common carotid artery were released, and blood flow was restored. The common jugular vein was separated, and then injected with normal saline solution, or tested compound. The vein was ligated. 3 drops of penicillin was dropped on the wound. The wound was sewed, and animals were waited for awake.
24 hours after the rats were awake, the degree of damage in neural function was evaluated by the Zealonga method. A score of 0 indicated no sign of loss in neural function, 1 indicated the front limbs on the undamaged side could not stretch out, 2 indicated walking toward the undamaged side, 3 indicated tail-chasing walking in circles toward the undamaged side, 4 indicated involuntary walking with disturbance of consciousness, and 5 indicated death. The evaluation results were statistically analyzed and subjected to t-test.
After the rats were awake for 24 hours and assessed for their degree of damage in neural function by Zealonga method, they were anesthetized with urethane followed by immediate decapitation and removal of the brain. Brain tissues were kept in a −20° C. refrigerator for 2 hours, and coronal sections of about 2 mm were successively sliced from the prefrontal end for a total of 5 sections and then placed into a 2% TTC solution to incubate without light at 37° C. for 30 min. The color change in brain sections was observed: normal brain tissues were stained red by TTC, while ischemic brain tissues appeared in white. Photographs were taken by using a digital camera and processed with image statistics software, and the volume of infarction in brain tissues and the area of normal brain tissues in the coronal sections were calculated. The ratio of the cerebral infarction volume of each group was statistically calculated and subject to t-test.
An embolic occlusion of the middle cerebral artery in male Sprague-Dawley rats was induced by introducing blood clots into the carotid artery. Rats were treated with vehicle (saline), rtPA (10 mg/kg, IV bolus injection), or DC009 (0.007 mg/kg, IV bolus injection) after 3 hours of stroke onset (n=12-13 per treatment group). […]

[2] = Study 101: pharmacokinetics of single doses in healthy subjects; assay type: in vivo, human
Excerpt: (§1) The primary objective of this Phase 1, double-blind, randomized, placebo-controlled study was to determine the safety, tolerability, and pharmacokinetics of single ascending doses of DC009 drug product administered by 15-minute IV infusion in healthy subjects. The secondary objectives were to characterize the pharmacodynamics of single-ascending doses, explore the pharmacokinetic-pharmacodynamic relationships of single-ascending doses, and to determine the RP2D of the DC009 drug product.
(§2) The subject population was healthy adult male and female subjects between the ages of 18 and 65 years. Sixteen healthy subjects completed the study. All subjects received a single dose of DC009 drug product or placebo administered via a 15-minute IV infusion.
Cohort 1 (8 subjects) was administered 0.05 mg/kg DC009 drug product or placebo, and Cohort 0 (8 subjects) was administered 0.025 mg/kg DC009 drug product or placebo.
Primary Endpoints: • Nature and severity of adverse events (AEs) and number of subjects with AEs • Changes from baseline in vital signs, electrocardiogram (ECG) results, laboratory abnormalities, plasmin-antiplasmin complex, euglobulin clot lysis time, platelet aggregation, and physical examination findings • Pharmacokinetic parameters: maximum plasma concentration (Cmax), time to reach the observed maximum (peak) concentration (Tmax), area under the plasma concentration-time curve from time zero to the time of the last quantifiable concentration (AUC0-t), elimination half-life (T1/2), total body clearance of the drug from plasma (CL), and volume of distribution Secondary Endpoints • Pharmacodynamic effects of DC009 drug product on blood pressure, thrombin time (TT), prothrombin time (PT), euglobulin clot lysis time, and activated partial thromboplastin time (aPTT) up to 48 hours after dosing • Relationship between DC009 plasma concentrations and the selected PD and safety parameters • RP2D (recommended phase II dose) Results
The pharmacokinetic parameters of DC009 drug product were assessed included maximum plasma concentration (Cmax), time to reach Cmax (Tmax), area under the plasma concentration-time curve from time zero to infinity (AUC0-∞), area under the plasma concentration-time curve from time zero to the time of the last quantifiable concentration (AUC0-t), elimination half-life (T1/2), total body clearance of the drug from plasma (CL), and volume of distribution at steady state (Vss). A single sample of blood was collected at the following time points for the quantification of DC009 in plasma: at predose, 5, 10, 15 (end of infusion), 20, 25, 30, and 45 minutes; and at 1, 2, 4, 6, 12, 18, and 24 hours after infusion was initiated.

[3] = Study 101: safety and tolerability of single doses in healthy subjects; assay type: in vivo; settings: both sexes, human, plasma, intravenous; from Subject 001-008 and Subject 001-042, 0.05 mg/kg; read-out: Cmax at which DC009 was tolerable in human
Excerpt: as §1, §2
Cohort 1 (8 subjects) was administered 0.05 mg/kg DC009 drug product or placebo, and Cohort 0 (8 subjects) was administered 0.025 mg/kg DC009 drug product or placebo. […]

[4] = Human plasma pharmacokinetics, summary statements of the description; assay type: in vivo
[5] = 0.025 mg/kg dose to the 0.05 mg/kg dose

Compound: rtPA: Alteplase (Activase), a recombinant tissue-type plasminogen activator (rtPA) [reference compound]
- Mean neurological deficit scores (NDS) ([1]; rtPA 3 mg/kg IV bolus 6 hours after stroke onset, 6-point scale): 3.27 ± 1.85
- infarct volumes (% hemisphere) ([1]; rtPA 3 mg/kg IV bolus 6 hours after stroke onset, 24 hours, TTC): 17.90 ± 7.47% hemisphere
- Mean neurological deficit scores (NDS) ([1]; rtPA 10 mg/kg IV bolus 3 hours after stroke onset, scale 0-5): 2.13 ± 1.173
- infarct volumes (% hemisphere) ([1]; rtPA 10 mg/kg IV bolus 3 hours after stroke onset, 24 hours, TTC): 12.74 ± 9.02% hemisphere

Compound: CC(NC(=O)C1CCCN1)C(=O)NC(CCCCN)C(=O)NCCCCC(NC(=O)C1Cc2cc(O)c(O)cc2C(C)(C)N1)C(=O)O (stereo not drawn) [DC009, 3S-6,7-dihydroxy-1,1-dimethyl-1,2,3,4-tetrahydro-isoquinoline-3-acyl-Lys(Pro-Ala-Lys)]
- infarct volumes (% hemisphere) ([1]; DC009 0.0007 mg/kg IV bolus from 24 hours after stroke onset, once daily for 6 days, 7 days after stroke): 9.95 ± 10.32% hemisphere
- effective dose in the rat Embolic Stroke Model ([1]; data from Example 4-6): 7 to 70 µg/kg
- dose-normalized geometric mean ratio for AUC0-inf [2, 5]: 1.40
- dose-normalized geometric mean ratio for Cmax [2, 5]: 1.46
- time measurable in plasma samples after the start of the infusion ([2]; 0.025 and 0.05 mg/kg, single 15-minute IV infusion): only measurable within the first half-hour
- dose proportionality of exposure ([2]; 0.025 vs 0.05 mg/kg): approximately dose proportional
- Cmax ([2]; Cohort 1, 0.05 mg/kg, single 15-minute IV infusion, individual subjects): 120 ng/mL
- Cmax ([2]; both sexes, human, plasma, iv, 0.025 mg/kg, Cohort 0, 0.025 mg/kg, single 15-minute IV infusion, Mean ± SEM, read-out: Cmax): < 110 ng/mL
- Cmax ([2]; both sexes, human, plasma, iv, 0.05 mg/kg, Cohort 1, 0.05 mg/kg, single 15-minute IV infusion, Mean ± SEM, read-out: Cmax): < 110 ng/mL
- Cmax ([2]; both sexes, human, plasma, iv, 0.05 mg/kg, Cohort 1, 0.05 mg/kg, single 15-minute IV infusion, individual subjects, read-out: Cmax): 152 ng/mL
- half-life ([2]; both sexes, human, plasma, iv, 0.025 and 0.05 mg/kg, single 15-minute IV infusion, read-out: T1/2, range): 3 to 4.2 min
- half-life ([2]; both sexes, human, plasma, iv, 0.025 and 0.05 mg/kg, single 15-minute IV infusion, read-out: mean of T1/2 (converted)): 3.24 min
- Tmax ([2]; both sexes, human, plasma, 0.025 and 0.05 mg/kg, single 15-minute IV infusion): 6 to 18 min
- Cmax [3]: ~150 ng/mL
- accumulation on multiple doses ([4]; administration of multiple doses): does not lead the accumulation
- plasma level after dosing ([4]; human plasma, 30 minutes after dosing): almost un-measurable
- half-life ([4]; human plasma, read-out: elimination half-life): < 5 min
